Measured values published in article PMC11697113, “The Hsc70 system maintains the synaptic SNARE protein SNAP-25 in an assembly-competent state and delays its aggregation [drawing 1]” (The Journal of Biological Chemistry, 2024).

Assays:
Hsc70 [1] = target: T1, Hsc70 (Homo sapiens, UniProt P11142); test: ATPase activity of Hsc70 (malachite green); assay type: biochemical; conditions: no peptide; "usually about"
T1 construct: 6X His-tag (TEV-cleavable) (cleaved yes); made in house; host or cells: E. coli Rosetta (DE3)
Excerpt: Hsp70s consist of an nucleotide-binding domain (NBD) and a substrate-binding domain (SBD). Hsc70 works using an allosteric mechanism whereby substrate binding at the SBD stimulates the ATP hydrolysis rate at the nucleotide-binding domain. The basal ATPase rate of Hsp70 is low, usually about 0.05 ± 0.009 mol Pi/mol protein, and increases when it is stimulated by binding of a peptide to the canonical site in the SBD. We measured the ability of SNAP-25 peptides SNNP and SNCP to stimulate the ATPase rate of Hsc70 (Fig. 5A). SNNP and SNCP binding cause a 1.5-fold increase of the Hsc70 ATPase rate over basal (observed rates upon addition of SNNP and SNCP were 0.089 ± 0.008 and 0.080 ± 0.005, respectively). In order to confirm that peptides are indeed binding at the canonical binding site of Hsc70, we used the V438F mutant that blocks the binding site ([37]). […] The addition of CSPαJ stimulates the ATPase activity of Hsc70 ∼4-fold with and without peptides.
Figure 5 SNN and SNC peptides interact with the canonical substrate-binding site of Hsc70.A, ATPase activity of Hsc70 (2 μM) in the absence (gray) and presence of 200 μM SNNP (orange) and SNCP (green) peptides. Error bars represent the SDs from three independent experiments. B, binding of SNAP-25 (black), SNNP (orange), LoopP (blue), and SNCP (green) peptides to Hsc70 followed by competition for FITC-p5 peptide using fluorescence anisotropy. Increasing concentrations of the competitors were added to a complex of Hsc70 (5 μM) and FITC-p5 peptide (50 nM). Error bars represent SDs from three independent experiments. […]
We performed ATPase assays to observe the activity of Hsc70 in the presence of SNAP25 peptides. […] Absorbance readings were taken at 620 nm using a BioTek plate reader. […]
(C) ATPase activity of Hsc70 (at 2 μM) in the absence (grey) and presence of 200 μM SNNP (orange) and L(Loop)-SNCP (green) peptides, and in the absence and presence of CSPa-J and CSPa-J/Apg2. The statistical significance was calculated using one-way ANOVA test with Sidak’s multiple comparison and the Hsc70 ATPase activity […]

Hsc70 [2] = target: T1, Hsc70; test: Competition binding vs FITC-p5 by fluorescence anisotropy; conditions: Hsc70 5 μM, FITC-p5 50 nM, competitor 0 to 200 μM, phosphate buffer pH 7.4, overnight 4 °C, fluorescence anisotropy 485/516 nm, three independent experiments
Experimental: Figure 3 Hsc70 forms complexes with SNAP-25.A, native PAGE of SNAP-25 (10 μM) in the presence and absence of Hsc70 (2 μM). The difference in signal intensity of His-SNAP25 probed with antibody is likely due to altered epitope exposure upon formation of the SNAP-25-Hsc70 complex. B, binding of SNAP-25 (black), SNAP-25 SNN (SNNFR, orange), and SNC (SNCFR, green)) fragments to Hsc70 by competition followed by fluorescence anisotropy. Increasing concentrations of the competitors were added to a complex of Hsc70 (5 μM) and FITC-p5 peptide (50 nM). Error bars represent SDs from three independent experiments.
To pin down the regions in SNAP-25 where Hsc70 binds we expressed the individual SNN and SNC fragments of SNAP-25 and tested their ability to compete for Hsc70 binding to an FITC-labeled p5 peptide (ALLLSAPRR).
Figure 5 SNN and SNC peptides interact with the canonical substrate-binding site of Hsc70.A, ATPase activity of Hsc70 (2 μM) in the absence (gray) and presence of 200 μM SNNP (orange) and SNCP (green) peptides. Error bars represent the SDs from three independent experiments. B, binding of SNAP-25 (black), SNNP (orange), LoopP (blue), and SNCP (green) peptides to Hsc70 followed by competition for FITC-p5 peptide using fluorescence anisotropy. Increasing concentrations of the competitors were added to a complex of Hsc70 (5 μM) and FITC-p5 peptide (50 nM). Error bars represent SDs from three independent experiments. C, structure of the canonical substrate-binding site of human HspA1 (PDB 4po2) illustrating the location of Hsc70 residues Ile 403 and Ile 440 in red and green spheres, respectively (N.B., Hsc70 and HspA1 share […] sequence identity). The SBD is shown in gray, bound substrate in cyan sticks, and the side chain of the residue occupying the 0th position in the chaperone (“anchor residue”) in orange ball and sticks. For better visualization of the substrate-binding site, residues 512 to 613, 405 to 408, and 431 were removed in this illustration of the structure. D, the Ile region of the ^1H-^13 C HMQC spectra of Ile-^13CH3-labeled Hsc70 (40 μM) in the absence (black) and in the presence of unlabeled SNNP (orange) and SNCP (green) peptides (200 μM).
To further characterize the binding of the SNAP-25 peptides to Hsc70 we used competition assays as above. Peptides SNNP, LOOPP, and SNCP were titrated against the protein-peptide complex of Hsc70 and FITC-p5 and fluorescence anisotropy was monitored to assess how well the SNAP-25 peptides displaced the model peptide.
Direct binding between the p5 peptide (QSRLLLSAPRRAA) and Hsc70 was carried out as described previously ([52]). […] Fluorescence anisotropy was measured in a BioTek plate reader (BioTek) with excitation at 485 nm and emission at 516 nm.
The measured anisotropy values were converted to fraction bound (fb) using the equation: fb=(r−r0)/(rb−r0) where r is the anisotropy value at any point, r0 is the anisotropy value of FITC-p5 in the absence of Hsc70, and rb is the anisotropy value of FITC-p5 when fully bound to Hsc70. […]
For competition assays, the concentrations of Hsc70 and FITC-P5 were kept constant at 5 μM and 50 nM, respectively, and the competitor substrate was titrated from 0 to 200 μM in phosphate buffer. […] Fluorescent anisotropy was measured as described above. […]

[3] = SNAP-25 aggregation kinetics by optical density; assay type: biochemical; conditions: without SNAP-25, 37 °C
Experimental: (§1) To test our hypothesis that Hsc70 inhibits SNAP-25 aggregation, we monitored the aggregation kinetics of recombinantly expressed SNAP-25 in the absence and presence of Hsc70 by following optical density at 360 nm (Fig. 2). […] This lag time was elongated to ∼65 h in the presence of Hsc70. In neurons, Hsc70 works in collaboration with its co-chaperone CSPα. […] (Fig. S2A). Apg2 is a member of the Hsp110 family, which is known to suppress protein aggregation ([36]). […] (Fig. S2B).
(§2) Figure 2 Hsc70 delays the aggregation of SNAP-25. Aggregation kinetics of SNAP-25 (50 μM) at 37 °C. Optical density of SNAP-25 was recorded at 360 nm in the absence (black) and in the presence of Hsc70 (5 μM, red), and Hsc70+CSPαJ (5 μM each, blue).
(§3) Aggregation of SNAP-25 at 50 μM was followed by measuring the A360 in a 96-well plate using a BioTek plate reader (BioTek), at 37 °C with shaking at 300 rpm, in the absence and presence of Hsc70 and CSPαJ at 5 μM each, and Apg2 at 0.5 μM. The aggregation buffer included 20 mM phosphate buffer pH 7.4, 100 μM MgCl2, and 100 mM KCl, and an ATP-experiment was carried out using regeneration system (5 mM 2-phosphoenolpyruvate, 0.05 mg/ml pyruvate kinase, and 5 mM ATP), as described previously ([51]).
(§4) Figure SI 2. Apg2 enhances the effect of Hsc70 on SNAP-25. (A) Aggregation kinetics of SNAP-25 (50 μM) at 37 °C. OD600 of SNAP-25 was recorded in the absence (black) and in the presence of Hsc70, Hsc70+CSPa-J (blue) and Hsc70+CSPa-J+Apg2 (turquoise). […]
(§5) concentrations are SNAP-25 (50 μM), Hsc70 (5 μM), CSPa-J (5 μM) and Apg2 (0.5 μM).
(§6) (B) Aggregation kinetics of SNAP-25 (50 μM) at 37 °C. OD600 of SNAP-25 was recorded in the absence (black) and in the presence of Apg2 (blue). […]

SNAP-25 [4] = test: SNAP-25 aggregation kinetics by optical density; assay type: biochemical; conditions: SNAP-25 50 μM, Hsc70 5 μM, 37 °C, shaking 300 rpm, OD 360 nm, 20 mM phosphate buffer pH 7.4, 100 μM MgCl2, 100 mM KCl
Experimental: as §1, §2, §3, §4, §5, §6

[5] = test system: SNARE complex with syntaxin and synaptobrevin; test: SDS-resistant SNARE complex formation (SDS-PAGE); assay type: biochemical; conditions: with Hsc70, mixed with syntaxin and synaptobrevin, 1 M NaCl, 4 °C
Experimental: We took aliquots of SNAP-25 at different time points of the aggregation reaction (at 0 h, in lag phase and at 64 h in the log or saturation phase, Fig. 2A) and mixed them with the SNARE motifs of syntaxin and synaptobrevin to allow the formation of the SNARE complex.
Figure 6 Hsc70 facilitates incorporation of SNAP-25 into the SNARE complex in vitro. SDS-PAGE of SNAP-25 taken from the aggregation reactions (Fig. 2) at 0 h and 64 h after the initiation, without (left) and with Hsc70 (right), and mixed with syntaxin and synaptobrevin for the time indicated below each SDS-PAGE. SNAP-25 is expressed and purified from E. coli; a minor amount of the bacterial Hsp70 homolog DnaK (∼70 kDa) may copurify with SNAP-25, explaining the presence of higher molecular weight bands, with its proteolysis potentially occurring during ∼64-h SNAP-25 aggregation reactions. For synaptobrevin, we attribute the higher molecular weight bands to incomplete cleavage of GST-tagged synaptobrevin.
The SNARE motifs were mixed in an equimolar ratio in the following order: synaptobrevin-2 (29–93), syntaxin-1A (191–253), and SNAP-25 taken from the aggregation reaction, in the presence of 1 M NaCl. The assembly reaction was incubated at 4 °C overnight while rotating. The SNARE motifs were concentrated using a 30-kDa molecular weight cutoff Amicon centrifugation filters and run on 4 to 20% gradient SDS-PAGE.

SNAP-25 [6] = test: Far-UV CD; assay type: physicochemical; conditions: far-UV CD 200–250 nm, 22 °C (Fig. S1)
Experimental: SNAP-25 has four native cysteines that are palmitoylated upon interaction with the membrane. […] For all of our studies, the SNAP-25 CS mutant was used unless otherwise mentioned.
The far-UV CD spectra (200–250 nm) were recorded on a Jasco J-1500 Circular Dichroism Spectrophotometer at 22 °C. The SNAP-25 WT, SNAP-25, and mixture of SNAP-25 and Hsc70 were taken in a 1 mm path length quartz cuvette. Figures show the average of ten scans where the buffer baselines were subtracted. Data were plotted using software using the Origin (Pro) program (OriginLab Corp).

T1 sequence (P11142 whole entry): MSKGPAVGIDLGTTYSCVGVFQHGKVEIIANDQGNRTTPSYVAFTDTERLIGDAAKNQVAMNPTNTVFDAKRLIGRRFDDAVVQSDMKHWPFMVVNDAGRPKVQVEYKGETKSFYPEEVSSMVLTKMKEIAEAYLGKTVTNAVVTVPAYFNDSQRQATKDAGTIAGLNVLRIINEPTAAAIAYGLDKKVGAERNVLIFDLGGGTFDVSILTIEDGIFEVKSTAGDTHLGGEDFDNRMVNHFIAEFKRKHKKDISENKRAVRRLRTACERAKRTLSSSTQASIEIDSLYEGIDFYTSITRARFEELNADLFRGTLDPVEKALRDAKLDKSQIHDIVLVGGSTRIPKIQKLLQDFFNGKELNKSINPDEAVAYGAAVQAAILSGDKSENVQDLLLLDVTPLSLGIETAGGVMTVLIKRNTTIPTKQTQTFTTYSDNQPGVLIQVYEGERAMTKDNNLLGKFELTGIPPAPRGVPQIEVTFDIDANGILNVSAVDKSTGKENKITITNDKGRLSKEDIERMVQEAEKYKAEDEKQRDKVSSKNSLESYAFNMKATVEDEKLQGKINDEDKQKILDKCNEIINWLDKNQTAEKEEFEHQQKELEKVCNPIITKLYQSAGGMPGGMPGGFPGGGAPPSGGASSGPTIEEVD

For 70-kDa heat shock protein [Hsp70], the “basal ATPase rate” value (Hsc70 [1]) was “about 0.05 ± 0.009 mol Pi/mol protein”.
With SNC: SNAP-25 SNC fragment, SNCFR141–201 the “competition with p5 peptide for binding to Hsc70” value (Hsc70 [2]) was “competed with p5 peptide for binding to Hsc70”.
In the case of SNN: SNAP-25 SNN fragment, SNNFR 11–82, the “competition with p5 peptide for binding to Hsc70” value (Hsc70 [2]) is reported as “competed with p5 peptide for binding to Hsc70”.
For heat shock cognate 70 [Hsc70], the “aggregation of the chaperone alone” value ([3]; OD 360 nm (Fig. 2)) was “no aggregation”, the “aggregation of the chaperone alone” value ([3]; OD600 (Fig. S2A), Hsc70 5 μM, CSPa-J 5 μM, Apg2 0.5 μM) was “exhibit no aggregation” and the “lag time of SNAP-25 aggregation in the presence of Hsc70” value (SNAP-25 [4]) was about 65 h. For the same substance, the “SNARE complex formation by SNAP-25 taken at 0 h and 64 h of aggregation in the presence of Hsc70” value [5] was “can productively form a SNARE complex” and the “conformational change upon Hsc70-SNAP-25 interaction” value (SNAP-25 [6]) was “no significant conformational change”.
